From US20210363269A1 (ALX ONCOLOGY, published 2021) come the findings set out here.

Changes are numbered by the printed parent chain. Names and notes keep the numbering of the source.

Test [1] addresses T1, human SIRP-α v1 D1 domain (human, UniProt P78324 31-149).
T1 construct: also called human v1; human α v1
Kind of test: SPR, antibody immobilised on GLC chip. The procedure:
(§1) All experiments were performed at 25° C. using a SPR-based ProteOn XPR36 biosensor (BioRad, Inc, Hercules, Calif.) equipped with GLC or NLC sensor chips. […] Purification was carried out by standard Protein A affinity column chromatography and eluted antibodies were stored in PBS buffer.
(§2) For the method using GLC chip, the analytes were injected and flowed over anti-SIRPα antibodies immobilized (˜1000 RUs) on GLC chips using Proteon™ Amine Coupling Kit. For the immobilization step, GLC chip was activated with EDAC/Sulpho-NHS 1:1 (Biorad) diluted 1/100 for 300 s at 25 μL/min. Anti-SIRPα antibodies were diluted to 80 nM concentration in 10 mM sodium acetate buffer pH 4.5 and immobilized to the chip at 30 μL/min for 50 s. Chip was inactivated with ethanolamine for 300 s at 25 μL/min. The analytes (e.g., SIRP-α from different species, SIRP-β, SIRP-γ) were injected in a “one-shot” kinetic mode at nominal concentrations of 100, 33, 11, 3.7, 1.2 and 0 nM. Association times were monitored for 90 s at 100 μL/min, and dissociation times were monitored for 1200 s. The surfaces were regenerated with a 2:1 v/v blend of Pierce IgG elution buffer/4M NaCl.
(In general: SPR reads the build-up and loss of mass on a sensor chip optically.)

In test [2] the target is T2, human SIRP-α v2 D1 domain (human).
T2 construct: also called human v2; human α v2
T2 sequence (chain, as listed by the source limits assumed): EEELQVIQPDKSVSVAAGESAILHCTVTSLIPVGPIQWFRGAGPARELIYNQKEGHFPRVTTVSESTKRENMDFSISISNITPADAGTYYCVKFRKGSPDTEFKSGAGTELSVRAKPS
The test is described as follows: SPR, antibody immobilised on GLC chip. The procedure:
as §1, §2

The target in test [3] is T3, cynomolgus SIRP-α D1 domain (SEQ ID NO:11) (cynomolgus, UniProt Q5TFQ8 30-148 (human entry), limits assumed).
T3 construct: also called cyno1
T3 chain: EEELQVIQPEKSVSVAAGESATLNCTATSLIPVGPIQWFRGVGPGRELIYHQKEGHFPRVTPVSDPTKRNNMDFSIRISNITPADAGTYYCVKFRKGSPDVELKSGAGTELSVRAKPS
Kind of test: SPR, antibody immobilised on GLC chip. As to the method: as §1, §2

The target in the next test is T4, BL6 mouse SIRP-α (mouse (C57BL/6 strain), UniProt P97797 32-148).
T4 construct: also called C57BL/6
T4 sequence: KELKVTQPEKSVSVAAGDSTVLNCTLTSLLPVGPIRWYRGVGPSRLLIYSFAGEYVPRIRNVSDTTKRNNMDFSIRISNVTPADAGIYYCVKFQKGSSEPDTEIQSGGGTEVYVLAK
Kind of test: SPR, antibody on GLC chip. In outline:
(§3)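 Antibodies purified with Protein A were amine-coupled (~1000 RU) to a ProteOn XPR36 GLC chip, and SIRP analytes were injected one-shot at 100, 33, 11, 3.7, 1.2 and 0 nM in PBS pH 7.4 with 0.01% Tween-20 at 25° C. Each run used 90 s association at 100 μL/min followed by 1200 s dissociation. KD was derived as kd/ka from a global Langmuir fit to double-referenced sensorgrams.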

Another test deals with T5, BALBc mouse SIRP-α (mouse (BALB/c strain)).
T5 chain: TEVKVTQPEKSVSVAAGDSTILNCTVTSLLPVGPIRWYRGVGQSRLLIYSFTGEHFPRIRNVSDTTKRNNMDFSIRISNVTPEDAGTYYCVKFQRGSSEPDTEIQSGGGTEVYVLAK
The test is described as follows: SPR, antibody on GLC chip. The procedure, abridged: as §3

The target of the next test is T6, NOD mouse SIRP-α (mouse (NOD strain)).
T6 chain: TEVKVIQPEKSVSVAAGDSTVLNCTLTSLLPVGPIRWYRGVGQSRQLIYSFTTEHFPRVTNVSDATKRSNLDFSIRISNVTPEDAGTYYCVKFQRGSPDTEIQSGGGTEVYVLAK
The test is described as follows: SPR, antibody on GLC chip. In outline:
as §3

The next test has as its target T7, human SIRPβ isoform 1 (human, UniProt O00241 30-148).
T7 construct: also called Beta; Human SIRPb
Kind of test: SPR, antibody on GLC chip. The procedure, abridged:
as §3

Test [4] concerns the target T8, human SIRP-α v1 (human, UniProt P78324 31-149).
T8 construct: also called Human v1; Human V1
Kind of test: SPR, antibody on GLC chip. The procedure, abridged:
as §3

Test [5] has as its target T9, human SIRP-α v2 (human).
T9 construct: also called Human v2; Human V2
The test is described as follows: SPR, antibody on GLC chip. The procedure, abridged: as §3

The target of another test is T10, human SIRPγ isoform 1 (human, UniProt Q9P1W8 29-147).
T10 construct: also called Gamma; Human SIRPg
T10 sequence (Q9P1W8 29-147 limits assumed): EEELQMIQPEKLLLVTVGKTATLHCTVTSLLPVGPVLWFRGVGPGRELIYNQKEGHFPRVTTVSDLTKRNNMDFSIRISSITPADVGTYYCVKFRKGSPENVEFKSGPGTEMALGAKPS
The test is described as follows: SPR, antibody on GLC chip. In outline: as §3

A further test concerns the target T11, cynomolgus SIRP-α (cynomolgus monkey, UniProt Q5TFQ8 30-148 (human entry), limits assumed).
T11 construct: also called cyno1
T11 chain: T3 chain
Kind of test: SPR, antibody on GLC chip. The procedure, abridged: as §3

Another test deals with T12, mouse 129 SIRP-α (mouse (129 strain), UniProt P97797 32-150).
T12 construct: also called m129
T12 chain: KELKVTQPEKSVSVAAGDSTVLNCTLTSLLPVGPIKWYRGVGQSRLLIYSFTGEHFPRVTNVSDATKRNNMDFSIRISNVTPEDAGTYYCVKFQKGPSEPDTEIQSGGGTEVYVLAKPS
The test is described as follows: SPR Koff +/-. The procedure, abridged:
(§4)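 Antibodies were amine-coupled (GLC chip) or captured via biotinylated Protein A (NLC chip) on a ProteOn XPR36, and SIRP analytes were injected in one-shot kinetic mode at 25° C in PBS pH 7.4 with 0.01% Tween-20. KD is kd/ka from apparent rate constants given by a global simple Langmuir fit of double-referenced data, with analyte concentrations nominal.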

The target of test [6] is T8, human SIRP-α v1. The test is described as follows: SPR. In outline:
as §4

For test [7], the target named is T9, human SIRP-α v2. Kind of test: SPR. The procedure, abridged: as §4

T8 sequence (P78324 31-149 limits assumed): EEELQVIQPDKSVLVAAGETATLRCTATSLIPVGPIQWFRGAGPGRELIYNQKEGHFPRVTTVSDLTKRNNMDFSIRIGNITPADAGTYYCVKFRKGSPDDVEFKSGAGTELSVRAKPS
T1 sequence (P78324 31-149 limits assumed): as above
T9 sequence (chain, as listed by the source limits assumed): as the sequence (chain, as listed by the source limits assumed) above
T7 sequence (O00241 30-148 limits assumed): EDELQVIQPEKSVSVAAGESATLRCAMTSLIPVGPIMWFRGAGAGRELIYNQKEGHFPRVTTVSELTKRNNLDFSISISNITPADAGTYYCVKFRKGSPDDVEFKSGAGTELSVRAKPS

B1: antibody 119 variant mut/wt (VL mut all / VH wt) (antibody, human IgG1, V domains shown)
VH: DVQLLESGGGVVQPGGSLRLSCAASGFSFSNFAMTWVRQAPGEGLEWVSTIGSGDTYYADSVKGRFTISRDNSKNTLYLQMNSLRAEDTAVYYCAKDSTVSWSGDFFDYWGLGTLVTVSS
VL: EIVLTQSPATLSVSPGERATLSCRASQNVKNDLAWYQQKPGQAPRLLIYAARIRETGIPARFSGSGSGTEFTLTISSLQSEDFAVYYCQQYYDWPPFTFGGGTKVEIK
notes: Human IgG1 with L234A/L235A/G237A/N297A; Labels are in the order VL/VH
For orientation: Kd means the concentration at which binding is half-saturated. Regarding B1, the dissociation constant Kd came out at 0.214 nM in test [1], 0.0864 nM in test [2] and 0.138 nM in test [3].

B2: antibody 135 variant, light chain wt / heavy chain Mut_V34M (antibody, V domains shown)
VH: B1 VH with D1E, L5V, N31I, F32Y, T35S, E43K, S53A, G54D, S101G, L112Q
VL: EIVLTQSPATLSVSPGERVTFSCRASQNVRSDIAWYQQKPGQAPRLLIYAASSRDTGIPDRFSGSGSGTDFTLTISSLQSEDFGVYYCQQYYDWPPFTFGGGTKVEIK
Regarding B2, the binding result in the test with BL6 mouse SIRP-α, with BALBc mouse SIRP-α and in the test with NOD mouse SIRP-α was “no binding” in each case. For the same molecule, the dissociation constant Kd turned out to be 0.16 nM with human SIRPβ isoform 1; 0.15 nM with human SIRP-α v1 [4]; 0.0161 nM with human SIRP-α v2 [5]; 0.533 nM in the test with human SIRPγ isoform 1; 0.0794 nM with cynomolgus SIRP-α.

B3: antibody 135 variant wt/mut V34M (antibody, human IgG1, V domains shown)
VH: B1 VH with D1E, L5V, N31I, F32Y, T35S, E43K, S53A, G54D, S101G, L112Q
VL: B2 VL
notes: as for B1
On to B3, for which the dissociation constant Kd in test [1] stood at 0.15 nM; in [2], 0.0161 nM; in [3], 0.0794 nM.

B4: AB119 Wt/wt with hIgG4 (antibody, V domains shown)
VH: B1 VH
VL: B1 VL with L21F, K39R, A60E, S76T
notes: Human IgG4 Fc region with S228P (EU numbering); only variable domains tied to the clone
Regarding B4, the Kd in [1] is 0.174 nM; in test [2] it was 0.0598 nM; in test [3], 0.116 nM.

B5: antibody 119 (antibody, V domains shown)
VH: B1 VH
VL: B1 VL with L21F, K39R, A60E, S76T
notes: also called AB119; S119
As to B5, the binding result with mouse 129 SIRP-α, with BL6 mouse SIRP-α and with BALBc mouse SIRP-α was “no binding” throughout. The dissociation constant (Kd) in the test with human SIRP-α v1 [6] came out at 0.183 nM; with human SIRP-α v2 [7], 0.0799 nM; in the test with human SIRPβ isoform 1, 0.342 nM; with human SIRP-α v1 [4], 0.183 nM; with human SIRP-α v2 [5], 0.0682 nM; with human SIRPγ isoform 1, 0.267 nM. In the test with cynomolgus SIRP-α, this molecule showed a dissociation constant Kd of 0.112 nM.

B6: antibody 135 variant, light chain Mut / heavy chain Mut (antibody, V domains shown)
VH: EVQLVESGGGVVQPGGSLRLSCAASGFSFSIYAVSWVRQAPGKGLEWVSTIGADDTYYADSVKGRFTISRDNSKNTLYLQMNSLRAEDTAVYYCAKDSTVGWSGDFFDYWGQGTLVTVSS
VL: B2 VL with F21L, D60A
On to B6, for which the binding result with BL6 mouse SIRP-α, in the test with BALBc mouse SIRP-α and with NOD mouse SIRP-α was “no binding” in each case. Moreover, the Kd with human SIRPβ isoform 1 was determined as 0.188 nM; in the test with human SIRP-α v1 [4], 0.192 nM; in the test with human SIRP-α v2 [5], 0.0175 nM; with human SIRPγ isoform 1, 0.733 nM; in the test with cynomolgus SIRP-α, 0.127 nM.

B7: antibody 119 variant wt/mut (VL wt / VH mut) (antibody, human IgG1, V domains shown)
VH: B1 VH with D1E, M34V, E43K, L112Q
VL: B1 VL with L21F, K39R, A60E, S76T
notes: as for B1
For B7, the Kd is 0.254 nM in test [1], 0.0694 nM in test [2] and 0.155 nM in [3].

B8: antibody 119 variant, light chain Mut / heavy chain Mut (antibody, V domains shown)
VH: B1 VH with D1E, M34V, E43K, L112Q
VL: B1 VL
Regarding B8, the binding result with BL6 mouse SIRP-α, with BALBc mouse SIRP-α and with NOD mouse SIRP-α was “no binding” each time. The dissociation constant (Kd) in the test with human SIRPβ isoform 1 amounted to 0.46 nM; in the test with human SIRP-α v1 [4], 0.317 nM; in the test with human SIRP-α v2 [5], 0.0875 nM; in the test with human SIRPγ isoform 1, 0.336 nM; in the test with cynomolgus SIRP-α, 0.195 nM.

B9: antibody 119 variant, light chain Mut / heavy chain Mut_V34M (antibody, V domains shown)
VH: B1 VH with D1E, E43K, L112Q
VL: B1 VL
Consider B9, for which the binding result in the test with BL6 mouse SIRP-α, with BALBc mouse SIRP-α and with NOD mouse SIRP-α was “no binding” throughout. The Kd with human SIRPβ isoform 1 was 0.337 nM; with human SIRP-α v1 [4], 0.215 nM; with human SIRP-α v2 [5], 0.0688 nM; with human SIRPγ isoform 1, 0.263 nM; with cynomolgus SIRP-α, 0.118 nM.

B10: antibody 119 variant Mut/mut_V34M (antibody, human IgG1, V domains shown)
VH: B1 VH with D1E, E43K, L112Q
VL: B1 VL
notes: as for B1
Consider B10, for which the Kd in test [1] was determined as 0.215 nM; in [2], 0.0688 nM; in test [3] it was 0.118 nM.

B11: antibody 136 variant, light chain wt / heavy chain Mut (antibody, V domains shown)
VH: EVQLVESGGGVVQPGRSLRLSCAASGFTFSSYDVNWVRQAPGKGLEWVSLISGSGEIIYYADSVKGRFTISRDNSKNTLYLQMNSLRAEDTAVYYCAKENNRYRFFDDWGQGTLVTVSS
VL: ETVLTQSPGTLTLSPGERATLTCRASQSVYTYLAWYQEKPGQAPRLLIYGASSRATGIPDRFSGSGSGTEFTLTISSLQSEDFAVYYCQQYYDRPPLTFGGGTKVEIK
Regarding B11, the Kd with BL6 mouse SIRP-α was found to be 23.1 nM; with BALBc mouse SIRP-α, 0.416 nM; with NOD mouse SIRP-α, 0.678 nM; with human SIRPβ isoform 1, 3.54 nM; in the test with human SIRP-α v1 [4] it was 0.558 nM; with human SIRP-α v2 [5], 1.74 nM. In addition, binding with human SIRPγ isoform 1 was characterised by a dissociation constant (Kd) of 16.5 nM.

B12: antibody 136 variant, light chain Mut_I2T / heavy chain Mut (antibody, V domains shown)
VH: B11 VH
VL: B11 VL with T12S, T22S, E38Q
For the molecule B12, the dissociation constant Kd came to 15.3 nM with BL6 mouse SIRP-α; 0.422 nM in the test with BALBc mouse SIRP-α; 0.68 nM with NOD mouse SIRP-α; 3.16 nM with human SIRPβ isoform 1; 0.717 nM with human SIRP-α v1 [4]; 1.86 nM with human SIRP-α v2 [5]. Further, the Kd in the test with human SIRPγ isoform 1 amounted to 40 nM.
